The results in this text go back to patent US20210032299A1.

Starred links: 1 amine or outer side, 2 acyl side, 3 side chain; linkers in the order of their positions; H or OH if unused. Non-standard residues stand in square brackets, D forms with d. Groups on a side chain read outwards from the residue. No end group written: not given here. *: point of attachment. C20 diacid = O=C(O)CCCCCCCCCCCCCCCCCCC(=O)*; C18 diacid = O=C(O)CCCCCCCCCCCCCCCCC(=O)*; αMePhe(2-F) = C[C@](N)(Cc1ccccc1F)C(=O)O; γGlu = O=C(O)[C@H](CCC(=O)[*:2])N[*:1]; 4Pal = N[C@@H](Cc1ccncc1)C(=O)O; αMeL = CC(C)C[C@](C)(N)C(=O)O; Orn = NCCC[C@H](N)C(=O)O; AEEA = NCCOCCOCC(=O)O; Aib = CC(C)(N)C(=O)O

For experiment [1], the target named is T1, human glucose-dependent insulinotropic polypeptide (GIP) receptor (human), P48546.
T1 chain: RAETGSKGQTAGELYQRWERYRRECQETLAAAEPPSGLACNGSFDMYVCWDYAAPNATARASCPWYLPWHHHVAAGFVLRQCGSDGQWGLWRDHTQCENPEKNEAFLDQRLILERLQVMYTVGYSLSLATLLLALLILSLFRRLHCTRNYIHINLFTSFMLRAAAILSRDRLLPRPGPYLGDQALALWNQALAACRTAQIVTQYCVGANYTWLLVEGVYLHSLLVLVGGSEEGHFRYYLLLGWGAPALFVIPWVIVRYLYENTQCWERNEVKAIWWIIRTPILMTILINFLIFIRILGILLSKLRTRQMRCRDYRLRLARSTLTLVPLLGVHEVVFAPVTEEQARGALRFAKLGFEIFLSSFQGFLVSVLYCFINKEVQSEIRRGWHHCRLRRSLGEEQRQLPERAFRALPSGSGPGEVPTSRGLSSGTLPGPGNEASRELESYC
In words: SPA, displacement of [125I]-GIP from hGIPR membranes, 0.1% bacitracin.

For experiment [2], the target named is human glucagon receptor (human), P47871. In words: SPA, displacement of [125I]-Gcg from hGcgR membranes, 0.1% bacitracin. In general terms: In a radioligand displacement assay an active substance lowers the binding of a labelled ligand.
Chain of human glucagon receptor (human), P47871 (P47871 26-477): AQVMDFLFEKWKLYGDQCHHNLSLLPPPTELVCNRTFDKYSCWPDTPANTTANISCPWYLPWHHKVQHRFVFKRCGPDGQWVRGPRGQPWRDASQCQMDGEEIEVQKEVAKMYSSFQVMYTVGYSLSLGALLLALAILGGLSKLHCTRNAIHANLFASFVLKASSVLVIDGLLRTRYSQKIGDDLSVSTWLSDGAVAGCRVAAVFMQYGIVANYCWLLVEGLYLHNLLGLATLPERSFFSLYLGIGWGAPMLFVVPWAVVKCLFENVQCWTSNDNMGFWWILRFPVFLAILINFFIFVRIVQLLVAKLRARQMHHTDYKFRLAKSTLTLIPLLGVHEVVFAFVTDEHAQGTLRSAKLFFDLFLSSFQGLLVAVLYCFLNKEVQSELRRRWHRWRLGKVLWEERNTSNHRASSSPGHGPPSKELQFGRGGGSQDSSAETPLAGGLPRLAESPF

B1: Example 118 (peptide)
peptide: Y[Aib]EGTFISDYSI[αMeL]LDKIRQ[Aib]DFVEYK([AEEA-AEEA-γGlu-C20 diacid])LEAGPSSGAPPPS-NH2
modifications: N-terminus assumed
SMILES: CC[C@H](C)[C@H](NC(=O)[C@H](CCCCN)NC(=O)[C@H](CC(=O)O)NC(=O)[C@H](CC(C)C)NC(=O)[C@](C)(CC(C)C)NC(=O)[C@@H](NC(=O)[C@H](CO)NC(=O)[C@H](Cc1ccc(O)cc1)NC(=O)[C@H](CC(=O)O)NC(=O)[C@H](CO)NC(=O)[C@@H](NC(=O)[C@H](Cc1ccccc1)NC(=O)[C@@H](NC(=O)CNC(=O)[C@H](CCC(=O)O)NC(=O)C(C)(C)NC(=O)[C@@H](N)Cc1ccc(O)cc1)[C@@H](C)O)[C@@H](C)CC)[C@@H](C)CC)C(=O)N[C@@H](CCCNC(=N)N)C(=O)N[C@@H](CCC(N)=O)C(=O)NC(C)(C)C(=O)N[C@@H](CC(=O)O)C(=O)N[C@@H](Cc1ccccc1)C(=O)N[C@H](C(=O)N[C@@H](CCC(=O)O)C(=O)N[C@@H](Cc1ccc(O)cc1)C(=O)N[C@@H](CCCCNC(=O)COCCOCCNC(=O)COCCOCCNC(=O)CC[C@H](NC(=O)CCCCCCCCCCCCCCCCCCC(=O)O)C(=O)O)C(=O)N[C@@H](CC(C)C)C(=O)N[C@@H](CCC(=O)O)C(=O)N[C@@H](C)C(=O)NCC(=O)N1CCC[C@H]1C(=O)N[C@@H](CO)C(=O)N[C@@H](CO)C(=O)NCC(=O)N[C@@H](C)C(=O)N1CCC[C@H]1C(=O)N1CCC[C@H]1C(=O)N1CCC[C@H]1C(=O)N[C@@H](CO)C(N)=O)C(C)C
Broadly, the Ki is a measure of affinity in units of concentration, obtained from inhibition or displacement. Turning to B1, the inhibitory constant (Ki) in experiment [1] came out at 0.0696 nM.

B2: Example 111 (peptide)
peptide: Y[Aib]EGTFISDYSI[αMeL]LD[Orn]IHQ[Aib]DFVE[4Pal]K([AEEA-AEEA-γGlu-C18 diacid])LEGGPSSGAPPPS-NH2
modifications: N-terminus assumed
SMILES: CC[C@H](C)[C@H](NC(=O)[C@H](CCCN)NC(=O)[C@H](CC(=O)O)NC(=O)[C@H](CC(C)C)NC(=O)[C@](C)(CC(C)C)NC(=O)[C@@H](NC(=O)[C@H](CO)NC(=O)[C@H](Cc1ccc(O)cc1)NC(=O)[C@H](CC(=O)O)NC(=O)[C@H](CO)NC(=O)[C@@H](NC(=O)[C@H](Cc1ccccc1)NC(=O)[C@@H](NC(=O)CNC(=O)[C@H](CCC(=O)O)NC(=O)C(C)(C)NC(=O)[C@@H](N)Cc1ccc(O)cc1)[C@@H](C)O)[C@@H](C)CC)[C@@H](C)CC)C(=O)N[C@@H](Cc1c[nH]cn1)C(=O)N[C@@H](CCC(N)=O)C(=O)NC(C)(C)C(=O)N[C@@H](CC(=O)O)C(=O)N[C@@H](Cc1ccccc1)C(=O)N[C@H](C(=O)N[C@@H](CCC(=O)O)C(=O)N[C@@H](Cc1ccncc1)C(=O)N[C@@H](CCCCNC(=O)COCCOCCNC(=O)COCCOCCNC(=O)CC[C@H](NC(=O)CCCCCCCCCCCCCCCCC(=O)O)C(=O)O)C(=O)N[C@@H](CC(C)C)C(=O)N[C@@H](CCC(=O)O)C(=O)NCC(=O)NCC(=O)N1CCC[C@H]1C(=O)N[C@@H](CO)C(=O)N[C@@H](CO)C(=O)NCC(=O)N[C@@H](C)C(=O)N1CCC[C@H]1C(=O)N1CCC[C@H]1C(=O)N1CCC[C@H]1C(=O)N[C@@H](CO)C(N)=O)C(C)C
With B2, in experiment [1], the Ki came out at 0.0871 nM.

B3: Example 5 (peptide)
peptide: Y[Aib]EGTFISDYSI[αMeL]LDKIHQ[Aib]DFVEYK([AEEA-AEEA-γGlu-C20 diacid])LEGGPSSGAPPPS-NH2
modifications: N-terminus assumed
SMILES: CC[C@H](C)[C@H](NC(=O)[C@H](CCCCN)NC(=O)[C@H](CC(=O)O)NC(=O)[C@H](CC(C)C)NC(=O)[C@](C)(CC(C)C)NC(=O)[C@@H](NC(=O)[C@H](CO)NC(=O)[C@H](Cc1ccc(O)cc1)NC(=O)[C@H](CC(=O)O)NC(=O)[C@H](CO)NC(=O)[C@@H](NC(=O)[C@H](Cc1ccccc1)NC(=O)[C@@H](NC(=O)CNC(=O)[C@H](CCC(=O)O)NC(=O)C(C)(C)NC(=O)[C@@H](N)Cc1ccc(O)cc1)[C@@H](C)O)[C@@H](C)CC)[C@@H](C)CC)C(=O)N[C@@H](Cc1c[nH]cn1)C(=O)N[C@@H](CCC(N)=O)C(=O)NC(C)(C)C(=O)N[C@@H](CC(=O)O)C(=O)N[C@@H](Cc1ccccc1)C(=O)N[C@H](C(=O)N[C@@H](CCC(=O)O)C(=O)N[C@@H](Cc1ccc(O)cc1)C(=O)N[C@@H](CCCCNC(=O)COCCOCCNC(=O)COCCOCCNC(=O)CC[C@H](NC(=O)CCCCCCCCCCCCCCCCCCC(=O)O)C(=O)O)C(=O)N[C@@H](CC(C)C)C(=O)N[C@@H](CCC(=O)O)C(=O)NCC(=O)NCC(=O)N1CCC[C@H]1C(=O)N[C@@H](CO)C(=O)N[C@@H](CO)C(=O)NCC(=O)N[C@@H](C)C(=O)N1CCC[C@H]1C(=O)N1CCC[C@H]1C(=O)N1CCC[C@H]1C(=O)N[C@@H](CO)C(N)=O)C(C)C
As for B3, the Ki in experiment [1] was 0.0771 nM; in experiment [2] it was 619 nM.

B4: Example 94 (peptide)
peptide: Y[Aib]EGT[αMePhe(2-F)]ISDYSIALDKIHQ[Aib]EFVNYK([AEEA-AEEA-γGlu-C18 diacid])LAGGPSSGAPPPS-NH2
modifications: N-terminus assumed
SMILES: CC[C@H](C)[C@H](NC(=O)[C@H](CO)NC(=O)[C@H](Cc1ccc(O)cc1)NC(=O)[C@H](CC(=O)O)NC(=O)[C@H](CO)NC(=O)[C@@H](NC(=O)[C@](C)(Cc1ccccc1F)NC(=O)[C@@H](NC(=O)CNC(=O)[C@H](CCC(=O)O)NC(=O)C(C)(C)NC(=O)[C@@H](N)Cc1ccc(O)cc1)[C@@H](C)O)[C@@H](C)CC)C(=O)N[C@@H](C)C(=O)N[C@@H](CC(C)C)C(=O)N[C@@H](CC(=O)O)C(=O)N[C@@H](CCCCN)C(=O)N[C@H](C(=O)N[C@@H](Cc1c[nH]cn1)C(=O)N[C@@H](CCC(N)=O)C(=O)NC(C)(C)C(=O)N[C@@H](CCC(=O)O)C(=O)N[C@@H](Cc1ccccc1)C(=O)N[C@H](C(=O)N[C@@H](CC(N)=O)C(=O)N[C@@H](Cc1ccc(O)cc1)C(=O)N[C@@H](CCCCNC(=O)COCCOCCNC(=O)COCCOCCNC(=O)CC[C@H](NC(=O)CCCCCCCCCCCCCCCCC(=O)O)C(=O)O)C(=O)N[C@@H](CC(C)C)C(=O)N[C@@H](C)C(=O)NCC(=O)NCC(=O)N1CCC[C@H]1C(=O)N[C@@H](CO)C(=O)N[C@@H](CO)C(=O)NCC(=O)N[C@@H](C)C(=O)N1CCC[C@H]1C(=O)N1CCC[C@H]1C(=O)N1CCC[C@H]1C(=O)N[C@@H](CO)C(N)=O)C(C)C)[C@@H](C)CC
On to B4, for which the figures for the Ki in experiment [1] and in experiment [2] were 0.031 nM and 114 nM, respectively.

B5: Example 114 (peptide)
peptide: Y[Aib]EGT[αMePhe(2-F)]ISDYSIALDKIHQ[Aib]DFVE[4Pal]K([AEEA-AEEA-γGlu-C20 diacid])LEQGPSSGAPPPS-NH2
modifications: N-terminus assumed
SMILES: CC[C@H](C)[C@H](NC(=O)[C@H](CO)NC(=O)[C@H](Cc1ccc(O)cc1)NC(=O)[C@H](CC(=O)O)NC(=O)[C@H](CO)NC(=O)[C@@H](NC(=O)[C@](C)(Cc1ccccc1F)NC(=O)[C@@H](NC(=O)CNC(=O)[C@H](CCC(=O)O)NC(=O)C(C)(C)NC(=O)[C@@H](N)Cc1ccc(O)cc1)[C@@H](C)O)[C@@H](C)CC)C(=O)N[C@@H](C)C(=O)N[C@@H](CC(C)C)C(=O)N[C@@H](CC(=O)O)C(=O)N[C@@H](CCCCN)C(=O)N[C@H](C(=O)N[C@@H](Cc1c[nH]cn1)C(=O)N[C@@H](CCC(N)=O)C(=O)NC(C)(C)C(=O)N[C@@H](CC(=O)O)C(=O)N[C@@H](Cc1ccccc1)C(=O)N[C@H](C(=O)N[C@@H](CCC(=O)O)C(=O)N[C@@H](Cc1ccncc1)C(=O)N[C@@H](CCCCNC(=O)COCCOCCNC(=O)COCCOCCNC(=O)CC[C@H](NC(=O)CCCCCCCCCCCCCCCCCCC(=O)O)C(=O)O)C(=O)N[C@@H](CC(C)C)C(=O)N[C@@H](CCC(=O)O)C(=O)N[C@@H](CCC(N)=O)C(=O)NCC(=O)N1CCC[C@H]1C(=O)N[C@@H](CO)C(=O)N[C@@H](CO)C(=O)NCC(=O)N[C@@H](C)C(=O)N1CCC[C@H]1C(=O)N1CCC[C@H]1C(=O)N1CCC[C@H]1C(=O)N[C@@H](CO)C(N)=O)C(C)C)[C@@H](C)CC
In turn, B5 gave an inhibitory constant (Ki) in experiment [1] of 0.121 nM.

B6: Example 110 (peptide)
peptide: Y[Aib]EGTFISDYSI[αMeL]LDKIHQ[Aib]DFVE[4Pal]K([AEEA-AEEA-γGlu-C18 diacid])LEGGPSSGAPPPS-NH2
modifications: N-terminus assumed
SMILES: CC[C@H](C)[C@H](NC(=O)[C@H](CCCCN)NC(=O)[C@H](CC(=O)O)NC(=O)[C@H](CC(C)C)NC(=O)[C@](C)(CC(C)C)NC(=O)[C@@H](NC(=O)[C@H](CO)NC(=O)[C@H](Cc1ccc(O)cc1)NC(=O)[C@H](CC(=O)O)NC(=O)[C@H](CO)NC(=O)[C@@H](NC(=O)[C@H](Cc1ccccc1)NC(=O)[C@@H](NC(=O)CNC(=O)[C@H](CCC(=O)O)NC(=O)C(C)(C)NC(=O)[C@@H](N)Cc1ccc(O)cc1)[C@@H](C)O)[C@@H](C)CC)[C@@H](C)CC)C(=O)N[C@@H](Cc1c[nH]cn1)C(=O)N[C@@H](CCC(N)=O)C(=O)NC(C)(C)C(=O)N[C@@H](CC(=O)O)C(=O)N[C@@H](Cc1ccccc1)C(=O)N[C@H](C(=O)N[C@@H](CCC(=O)O)C(=O)N[C@@H](Cc1ccncc1)C(=O)N[C@@H](CCCCNC(=O)COCCOCCNC(=O)COCCOCCNC(=O)CC[C@H](NC(=O)CCCCCCCCCCCCCCCCC(=O)O)C(=O)O)C(=O)N[C@@H](CC(C)C)C(=O)N[C@@H](CCC(=O)O)C(=O)NCC(=O)NCC(=O)N1CCC[C@H]1C(=O)N[C@@H](CO)C(=O)N[C@@H](CO)C(=O)NCC(=O)N[C@@H](C)C(=O)N1CCC[C@H]1C(=O)N1CCC[C@H]1C(=O)N1CCC[C@H]1C(=O)N[C@@H](CO)C(N)=O)C(C)C
The molecule B6 yielded an inhibition constant Ki in experiment [1] of 0.339 nM.
